# Measured values taken from patent US20240409663A1 (CONCEPT TO MEDICINE BIOTECH, published 2024).
# B1: 172B4E9 mouse monoclonal antibody (antibody, V domains shown)
# VH: QVQLQQSGAELVRPGASVTLSCKASGYTFTDYEIHWVKQTPVHGLEWIGAIDPATGDTAYTQKFKGKAILTADTSSNTVYMELRGLTSEDSAVHFCTRFYSYAYWGQGTLVTVSA
# VL: DVVMTQTPLSLPVSLGDQASISCRSSQSLVHTNGHTYLQWYLQKSGQSPRLLIFKVSNRFSGVPDRFSGSGSGTDFKLKISRVEAEDLGVYFCSQSTHVPYTFGGGTKLEIK
# notes: mouse hybridoma antibody
# B2: 152E9F7 mouse monoclonal antibody (antibody, V domains shown)
# VH: QVQLQQSGAELVRPGASVTLSCKASGYTFTDYEIHWVKQTPVHGLEWIGAIDPETGDTAYTQKFKGKAILTADKSSNTVYMELRSLTSEDSAVYYCTRFYSYAYWGQGTLVTVSA
# VL: DVVMTQTPLSLPVSLGDQASISCRSSQSLVHTNGHTYLQWYLQKSGQSPKLLIYKVSNRFSGVPDRFSGSGSGTDFTLKISRVEAEDLGVYFCSQSTHVPYTFGGGTKLEIK
# notes: mouse hybridoma antibody
# B3: 18C1D9 mouse monoclonal antibody (antibody, V domains shown)
# VH: QVQLQQSGAELVRPGASVTLSCKASGYTFSDYEMHWVKQTPVHGLEWIGAIDPETGGTAYNQKFKGKATLTADKSSSTAYMELRSLTSEDSAVYYCTRYYSYAYWGQGTLVTVSA
# VL: DVVMTQSPLSLPVSLGDQASISCRSRQSLVHSNGNTYLQWYLQKPGQSPKLLIYKVSNRFSGVPDRFSGSGSGTDFTLKISRVEAEDLGVYFCFQSIHVPYTFGGGTKLEKK
# notes: mouse hybridoma antibody
# B4: 171F9C5 mouse monoclonal antibody (antibody, V domains shown)
# VH: QVQLQQSGAELVRPGASVTLSCKASGYTFTDYEIHWVKQTPVHGLEWIGAIDPETDNTAYSQKFKGKAILTADKSSSTAYMELRSLTSEDSAVYYCTRYYSYAYWGQGTLVTVSA
# VL: DVVMTQTPLSLPVSLGDQASISCRSSQSPVHRNGNTYLHWYLQKPGQSPKLLIFKVSNRFSGVPDRFSGSGSGTDFTLKISRVAAEDLGVYFCSQTTHVPYTFGGGTKLEIK
# notes: mouse hybridoma antibody
# B5: 52H5D3B8 mouse monoclonal antibody (antibody, V domains shown)
# VH: QVQLQQSGAELVRPGASVKLSCKALGYTFTDYEMHWVKQTPVHGLEWIGAIHPGSGGTAYNQKFKGKATLTADKFSSTGYMELSSLTSEDSAVYYCTRFYSYAYWGQGTLVTVSA
# VL: DVVMTQTPLSLPVSLGDQASISCRSSQSLVHSNGNTYLQWYLQKPGQSPKLLIYKVSNRFSGVPDRFSGSGSGTDFILKISRVEAEDLGVYFCSQSIHVPYTFGGGTKLEIK
# notes: mouse hybridoma antibody
# B6: 52H5D3B8-1# chimeric mAb (antibody, V domains shown)
# VH: QVQLQQSGAELVRPGASVKLSCKALGYTFTDYEMHWVKQTPVHGLEWIGAIHPGSGGTAYNQKFKGKATLTADKFSSTGYMELSSLTSEDSAVYYCTRYYSYAYWGQGTLVTVSA
# VL: DVVMTQTPLSLPVSLGDQASISCRSSQSLVHSNGNTYLQWYLQKPGQSPKLLIYKVSNRFSGVPDRFSGSGSGTDFILKISRVEAEDLGVYFCSQSIHVPYTFGGGTKLEIK
# notes: CDR3 mutant of the 52H5D3B8 chimeric mAb (human IgG1)
# B7: 52H5D3B8-4# chimeric mAb (antibody, V domains shown)
# VH: QVQLQQSGAELVRPGASVKLSCKALGYTFTDYEMHWVKQTPVHGLEWIGAIHPGSGGTAYNQKFKGKATLTADKFSSTGYMELSSLTSEDSAVYYCTRFYSYAYWGQGTLVTVSA
# VL: DVVMTQTPLSLPVSLGDQASISCRSSQSLVHSNGNTYLQWYLQKPGQSPKLLIYKVSNRFSGVPDRFSGSGSGTDFILKISRVEAEDLGVYFCSQSTHVPYTFGGGTKLEIK
# notes: as for B6
# B8: 163E7D12 mouse monoclonal antibody (antibody, V domains shown)
# VH: QVQLQQSGAELVRPGASVTLSCKASGYTFTDYEMHWVKQTPVHGLEWIGAIGPETGSTAYNQRFKGKAIVTADKSSSTAYMELRSLTSEDSAVYYCTRYYSFAYWGQGTLVTVSA
# VL: DVVMTQTPLSLPVSLGGQASISCRSSQSLVHSNGNTYLQWYLQKPGQSPKLLIFKVSNRFSGVPDRFSGSGSGTDFTLKISRVEAEDLGVYFCFQSIHVPYTFGGGTKLEIK
# notes: mouse hybridoma antibody
# B9: 52H5D3B8-10# chimeric mAb (antibody, V domains shown)
# VH: QVQLQQSGAELVRPGASVKLSCKALGYTFTDYEMHWVKQTPVHGLEWIGAIHPGSGGTAYNQKFKGKATLTADKFSSTGYMELSSLTSEDSAVYYCTRFYSYAYWGQGTLVTVSA
# VL: DVVMTQTPLSLPVSLGDQASISCRSSQSLVHSNGNTYLQWYLQKPGQSPKLLIYKVSNRFSGVPDRFSGSGSGTDFILKISRVEAEDLGVYFCFQSTHVPYTFGGGTKLEIK
# notes: as for B6
# B10: 52H5D3B8-9# chimeric mAb (antibody, V domains shown)
# VH: QVQLQQSGAELVRPGASVKLSCKALGYTFTDYEMHWVKQTPVHGLEWIGAIHPGSGGTAYNQKFKGKATLTADKFSSTGYMELSSLTSEDSAVYYCTRFYSFAYWGQGTLVTVSA
# VL: DVVMTQTPLSLPVSLGDQASISCRSSQSLVHSNGNTYLQWYLQKPGQSPKLLIYKVSNRFSGVPDRFSGSGSGTDFILKISRVEAEDLGVYFCSQSTHVPYTFGGGTKLEIK
# notes: as for B6
# B11: 52H5D3B8-8# chimeric mAb (antibody, V domains shown)
# VH: QVQLQQSGAELVRPGASVKLSCKALGYTFTDYEMHWVKQTPVHGLEWIGAIHPGSGGTAYNQKFKGKATLTADKFSSTGYMELSSLTSEDSAVYYCTRFYSFAYWGQGTLVTVSA
# VL: DVVMTQTPLSLPVSLGDQASISCRSSQSLVHSNGNTYLQWYLQKPGQSPKLLIYKVSNRFSGVPDRFSGSGSGTDFILKISRVEAEDLGVYFCFQSIHVPYTFGGGTKLEIK
# notes: as for B6
# B12: 52H5D3B8-3# chimeric mAb (antibody, V domains shown)
# VH: QVQLQQSGAELVRPGASVKLSCKALGYTFTDYEMHWVKQTPVHGLEWIGAIHPGSGGTAYNQKFKGKATLTADKFSSTGYMELSSLTSEDSAVYYCTRFYSYAYWGQGTLVTVSA
# VL: DVVMTQTPLSLPVSLGDQASISCRSSQSLVHSNGNTYLQWYLQKPGQSPKLLIYKVSNRFSGVPDRFSGSGSGTDFILKISRVEAEDLGVYFCFQSIHVPYTFGGGTKLEIK
# notes: as for B6
# B13: 52H5D3B8-2# chimeric mAb (antibody, V domains shown)
# VH: QVQLQQSGAELVRPGASVKLSCKALGYTFTDYEMHWVKQTPVHGLEWIGAIHPGSGGTAYNQKFKGKATLTADKFSSTGYMELSSLTSEDSAVYYCTRFYSFAYWGQGTLVTVSA
# VL: DVVMTQTPLSLPVSLGDQASISCRSSQSLVHSNGNTYLQWYLQKPGQSPKLLIYKVSNRFSGVPDRFSGSGSGTDFILKISRVEAEDLGVYFCSQSIHVPYTFGGGTKLEIK
# notes: as for B6
# B14: 52H5D3B8-5# chimeric mAb (antibody, V domains shown)
# VH: QVQLQQSGAELVRPGASVKLSCKALGYTFTDYEMHWVKQTPVHGLEWIGAIHPGSGGTAYNQKFKGKATLTADKFSSTGYMELSSLTSEDSAVYYCTRYYSFAYWGQGTLVTVSA
# VL: DVVMTQTPLSLPVSLGDQASISCRSSQSLVHSNGNTYLQWYLQKPGQSPKLLIYKVSNRFSGVPDRFSGSGSGTDFILKISRVEAEDLGVYFCSQSIHVPYTFGGGTKLEIK
# notes: as for B6
# B15: 52H5D3B8-11# chimeric mAb (antibody, V domains shown)
# VH: QVQLQQSGAELVRPGASVKLSCKALGYTFTDYEMHWVKQTPVHGLEWIGAIHPGSGGTAYNQKFKGKATLTADKFSSTGYMELSSLTSEDSAVYYCTRFYSFAYWGQGTLVTVSA
# VL: DVVMTQTPLSLPVSLGDQASISCRSSQSLVHSNGNTYLQWYLQKPGQSPKLLIYKVSNRFSGVPDRFSGSGSGTDFILKISRVEAEDLGVYFCFQSTHVPYTFGGGTKLEIK
# notes: as for B6
# B16: 52H5D3B8-7# chimeric mAb (antibody, V domains shown)
# VH: QVQLQQSGAELVRPGASVKLSCKALGYTFTDYEMHWVKQTPVHGLEWIGAIHPGSGGTAYNQKFKGKATLTADKFSSTGYMELSSLTSEDSAVYYCTRYYSYAYWGQGTLVTVSA
# VL: DVVMTQTPLSLPVSLGDQASISCRSSQSLVHSNGNTYLQWYLQKPGQSPKLLIYKVSNRFSGVPDRFSGSGSGTDFILKISRVEAEDLGVYFCSQSTHVPYTFGGGTKLEIK
# notes: as for B6
# Key:
# [1] = target: T1, human GPC3-his tag protein (human, UniProt P51654 25-559, limits assumed); experiment: SPR Biacore 8K, mAb captured on CM5, single dose GPC3-his
# T1 construct: recombinant soluble antigen used as analyte in all Biacore runs; also called recombinant GPC3 protein; rhGPC3-His; not shown: His tag
# Procedure: The binding of mouse monoclonal antibodies to human GPC3-his was tested with Biacore using a capture method. The antibodies were captured using CM5 sensor chip. A single dose of human GPC3-his tag protein was injected over captured antibody for 2 mins at a flow rate of 30 μl/min. The antigen was allowed to dissociate for 360 s. All the experiments were carried out on a Biacore 8K. Data analysis was carried out using Biacore 8K evaluation software.
# human GPC3 on cells = target: T2, human GPC3 on cells (human, UniProt P51654 25-554); experiment: FACS, GPC3-CHOK1 cells
# T2 construct: whole, on cells; over-expressed on CHOK1 cells or endogenous on HEPG2, Hep3B and Huh-7 hepatocellular carcinoma cells; the cell line is named under assay; also called GPC3-CHOK1 cells; human GPC3 over-expressed CHOK1 cells
# Procedure: Briefly, GPC3-CHOK1 cells were firstly incubated with Fc blocking reagent at 4° C. for 15 mins. Cells were washed by FACS buffer and divided to each well with 3-fold serially diluted 52H5D3B8, 52H5D3B8-1 #, 52H5D3B8-2 #, 52H5D3B8-3 #, 52H5D3B8-4 #, 52H5D3B8-5 #, 52H5D3B8-6 #, 52H5D3B8-7 #, 52H5D3B8-8 #, 52H5D3B8-9 #, 52H5D3B8-10 #, 52H5D3B8-11 #, 52H5D3B8-12 #, 52H5D3B8-13 #, 52H5D3B8-14 # and 52H5D3B8-15# chimeric mAbs starting at 30 μg/mL at 4° C. for 60 mins. Cells were washed by FACS buffer and fixed with 2% PFA at RT for 15 mins. […] Samples were washed twice with FACS buffer.
# [2] = target: T1, human GPC3-his tag protein; experiment: SPR Biacore 8K, mAb captured, one or two doses GPC3-his
# Procedure: The binding of the optimized antibodies of 52H5D3B8 mAb to human GPC3-his was tested with Biacore using a capture method. A single dose or two doses of human GPC3-his tag protein was injected over captured antibody. All the experiments were carried out on a Biacore 8K. Data analysis was carried out using Biacore 8K evaluation software.
Binder,Kd [1] [nM],koff [1] [s⁻¹],kon [1] [M⁻¹ s⁻¹],EC50 (human GPC3 on cells) [µg/mL],Kd [2] [nM],koff [2] [s⁻¹],kon [2] [M⁻¹ s⁻¹]
B1,0.446,9.01e-05,202000,,,,
B2,0.881,0.000162,184000,,,,
B3,1.57,0.000412,262000,,,,
B4,1.22,0.000199,162000,,,,
B5,1.39,0.000317,228000,,,,
B6,,,,0.104,0.74,0.000288,390000
B7,,,,0.0986,1.72,0.000578,335000
B8,0.755,0.000169,223000,,,,
B9,,,,0.176,4.05,0.00118,291000
B10,,,,0.247,12.9,0.00216,167000
B11,,,,0.0919,2.03,0.001,494000
B12,,,,0.0869,1.06,0.000556,525000
B13,,,,0.149,5.31,0.00121,228000
B14,,,,0.405,4.12,0.000412,100000
B15,,,,0.104,10.9,0.00354,326000
B16,,,,0.232,3.97,0.000617,155000
